# Assay results as given in patent US20240270801A1, “EPITOPE PEPTIDE OF HUMAN ALPHA-SYNUCLEIN AND PHARMACEUTICAL COMPOSITION INCLUDING SAID PEPTIDE” (Sumitomo Pharma Co., Ltd., priority 2021, published 2024).
# No end group written: not given here. KLH = keyhole limpet hemocyanin
# Assays:
# aggregated human αSyn [1] = assay: Antibody-inducing ability in mice: ELISA antibody titer of immune serum with respect to aggregated human αSyn; type: in vivo, mouse
# How it was run: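 Female balb/c mice (6 weeks) immunized i.m. twice, 2 weeks apart, with conjugate (250 μg/mouse) or KLH-DMPVDPDN (25 μg/mouse) plus Alum (50 μg/mouse); serum taken 2 weeks after second dose. ELISA on plates coated with aggregated human αSyn (15 ng/well), anti-mouse IgG-HRP, TMB, A450; titers expressed relative to reference conjugate set to 1 (log).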
# aggregated human αSyn [2] = target: aggregated human αSyn (Homo sapiens, UniProt P37840); assay: Aggregated human αSyn-neutralizing effect of antibody induced in mice: phosphorylation of human αSyn in SH-SY5Y cells; type: cell-based; design: purchased Stress Marq (StressMarq Biosciences Inc.); conditions: antibody (100 μg/mL) induced in C57BL/6 mice by the vaccine; FIG. 1B, isotype control = 100
# Experimental: The aggregated human αSyn-neutralizing effect of the antibody induced in the mice by the AJ-human αSyn peptide conjugate (AJ-p54) produced in Example 1 was evaluated. Physiological saline or the AJ-human αSyn peptide conjugate (250 μg/mouse) was intramuscularly administered to C57BL/6 mice (males, 6 weeks old, CLEA Japan, Inc.) four times at a 2-week interval using CFA (DIFCO) as an adjuvant. Furthermore, KLH-DMPVDPDN (25 μg/mouse) was administered using Alum (InvivoGen, 50 μg/mouse) as an adjuvant. Two weeks after the fourth administration, serum was recovered. After recovering the antibodies comprised in the serum by Protein G HP SpinTrap (Cytiva), the human αSyn- and aggregated human αSyn-neutralizing effect was evaluated by a method described below.
# As the human αSyn- and aggregated human αSyn-neutralizing effect, the influence on phosphorylation of human αSyn in SH-SY5Y cells (ATCC) was evaluated. The SH-SY5Y cells were seeded in a 96-well plate at 2×10^4 cells/well and cultured under the conditions of 37° C. and 5% CO2. […] After fixing the cells with a 4% paraformaldehyde/phosphate buffer solution (FUJIFILM Wako Pure Chemical Corporation), phosphorylated human αSyn was stained with a fluorescence-labeled anti-phosphorylated αSyn antibody (Cell Signaling). The amount of phosphorylated human αSyn was evaluated by image analysis using ArrayScan (Thermo Fisher Scientific Inc.). […]
substance,measurement,setting,value
"KLH-C-DMPVDPDN ({KLH}-CDMPVDPDN) [KLH-DMPVDPDN, comparison vaccine, reference compound]",Antibody-inducing ability regarding the aggregated human αSyn (in words),"aggregated human αSyn [1]; Example 2, balb/c mice",very weak
same,"Antibody titer with respect to aggregated human αSyn (N = 4 − 6, mean ± standard deviation)","aggregated human αSyn [1]; Example 2, balb/c mice, i.m. twice at 2-week interval, Alum, AJ conjugates 250 μg/mouse, KLH-DMPVDPDN 25 μg/mouse, serum 2 weeks after second administration",208 ± 205
same,Induction of the antibody to aggregated human αSyn (in words),"aggregated human αSyn [1]; Example 4, balb/c mice",did not induce the antibody to aggregated human αSyn
same,Antibody titer with respect to aggregated human αSyn (mean ± standard deviation),"aggregated human αSyn [1]; Example 4, balb/c mice, i.m. twice at 2-week interval, Alum, AJ conjugates 250 μg/mouse, KLH-DMPVDPDN 25 μg/mouse",36 ± 20
same,Phosphorylation of human αSyn in SH-SY5Y cells to which aggregated human αSyn was added,aggregated human αSyn [2],inhibited
